Reference: the nanobody polyreactivity screen of Harvey et al. (2022)

Assay: yeast display, Sf9 membrane polyspecificity reagent, FACS + sequencing; frameworks hold sequencing errors
In short: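 Using colony PCR, genes from sorted yeast display clones were amplified, then sequenced on MiSeq at 2 × 250 and filtered by CDR length. The clones had been stained with 10% biotinylated, detergent-solubilized Sf9 membrane reagent for 1 hour at 4 °C and sorted by FACS into low and high (top ~1%) gates on anti-HA and streptavidin fluorescence. Polyreactivity labels come from the gate of origin.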

| Sequence | polyreactivity (PSR sort gate) |
| --- | --- |
| QVHLVESGGGLVQAGGSLRLSCADSGTTFHKYAMGWYRQAPGTERELVARISVGGDSTYYADSVKGRFTISRDNAKNTDYLQIISLKPEDTAVYYCAKVRYLVFLYPPRYYYWGQGTEVTVSS | low polyreactivity |
| QVHLVESGGGLVQAGGSLRLSCASSGSIFGPYVMGWYRQAPRKERELVAAITWNGGSTNYADSLKGRFTISRDNAKNTVYLQMNSLKPEETAVYYCNTVSWPLSSKYYYWGQGTQVSVSS | high polyreactivity |
| QVHLVESGGGLVQAGGSLRLSCPASGLTFYRYAMGLYRPAPGKERELVAAISSGGNTYYADSVKGRFTISRDNAKNTVYLQMNSMKPEDTAVYYCAAESYALRGHPGYYYWGQGSQVTVSS | high polyreactivity |
| QVHLVESGGGLVQAGGSLRLSFAASGRTFRGNDMGWYRQAPGKERELVATITRNGGSTRYADSVKGRFTISRDNAKNNVYLQMNSLKPEDSAVYYCNARSRYFGYDYWGQGTQVTVSS | high polyreactivity |
| QVHLVESGGGLVQAGGSLRLSFAAYGSIFIQYVMGWYRQAPGKERELVAAISRRGGSTYYADSVKGRFTISRDNAKNTVYLHMNSLKPEDTAVYYCAAGSAYSIGYYWGQGTQVTVSS | high polyreactivity |
| QVHLVESGGGLVQAGGSLRLSSAASGRNFFNYAMGWYRQAPGKERELVAAISTGGSTTYADSVKGRFTISRDNAKNTVYLQMNSLKPEDTAVYYCARRGRRYRQYSRYYYWGQGTQVTVSS | high polyreactivity |
| QVHLVESGGGLVQAGGSLRLSSAASGSIFDSNAMGWYRQAPGKERELVAAINSTDITKYADSVKGRFTISRDNAKNTVYLQMNSLKPEDTAVYYCAKDQSLTYSSLWGYDYWGQGTQVTVSS | low polyreactivity |
| QVHLVESGGGLVQAGGSLRLSSAASGSTFDYYAMGWYRQAPGKERELVAAISVGGGGTTYADSVKGRFTISRDNAKNTVYFQMNCLNPEDTAVYYCAARYRTRKRPGSKYYYWGQGTQVTVSS | high polyreactivity |
| QVHLVESGGGLVQAGGSLRLTCAASGSIFTVYALGWYRQAPGKERELVAAITRNGGRTYYADSVKGRFTISRDNAKNTVYLQMNSLIPEDTAGYYCAAPGLYSRLDYWGQGTQVTVSS | high polyreactivity |
| QVHLVESGGGLVQAGGSLRLTCAASGSTFASNVMGWYRQAPGKERELVAAISRRGTRTNYADSVKGRFTISLDNAKNTVYLQMKSLKPEDTAVYYCNTASGTNVVYEFGYWGQGTQVTVSS | high polyreactivity |
| QVHLVESGGGLVQAGGSLSLSCAASGRNFRAYAMGWYRQAPGKETEFVAAISRSGGSTYYADSVKGRFTISRDYAKNTVYLQMHSLKPVDTAVYYCAARVRYPYRYYYWGQGTQVTVSS | high polyreactivity |
| QVHLVESGGGLVQAGGSRRLSCAASGRIFSRYTMGCYRQAPGKERELVAVNTSGGSTNYADSVKGRFTISRDNAKNTVYLQMNSLKPEDTAVYYCNAVRFTYGGYLRRYDYWGQGTQVTVSS | high polyreactivity |
| QVHLVESGGGLVQAGRSLRFSCAASGSIFGVNTMGWYRQAPGKERELDAGISSSGSSTYYADSVKGRFTISRDNAKNTVYLQMNSLKPEDTAVYDCAVRPRYYSTNMDSWGQGTQVTVSS | low polyreactivity |
| QVHLVESGGGLVQAGRTLRLICAASGFIFWRNTMGWYRQAPGKERELVAVITRGGSTYYADSVKGRFTLSRDNAKNTGYLQMNSLKPEDTAVYYCAARNDYYKTFSGYDYWGQGTQVTVSS | low polyreactivity |
| QVHLVESGGGLVQARGSLRLSCAASGITFRYYTMGLYRQAPVKERELVAVISWSGGSTYYADSVKGRFTISRDNAKNTVYFQMNSLKPEDTAVYYCAAVRRISRYDYWGQGTQVTVSS | high polyreactivity |
| QVHLVESGGGLVQARGSLRLSCAASGSTIYSYARGWYRQAPGKERELVAAINRSAGSTYYADSVKGRFTISRDNAKNTVYLQMTSLKPEDTAVYYCAAYASRSYGDWGQGTQVTVSS | high polyreactivity |
| QVHLVESGGGLVQARGTRRLSCAASGYTFPRYTMGWYRQAPGKERELVAAISGSSGSTYYADSVTGRFTISRDNATNTVYLQLNSLKPEDTAVYYCNKYYGFHKIKEYDYWGQGTQGTVSS | high polyreactivity |
| QVHLVESGGGLVQAVVSLRLSCAASGTTFVSYAMGWYRHATGKERELVAGISWSGTRTYYADSVKGRFTISRDNAMNTVYLQMNSLKPEDSAVYYCNAVYIYNYRTLDYWGQGTQVTVSS | high polyreactivity |
| QVHLVESGGGLVQPGGSLRLSCAASGSTFQTYAMVWYRQAPGKERELVAAITSGGSTNYADSVKGRFTISRDNAKNTVYLQMNSVYPEVTAVYFCAVRQIYQTSDHRLQYDYWGQGTQVTVSS | low polyreactivity |
| QVHLVESGGGVVQAGGSLRLSCAASGRIFHRYEMGWYRQAPVKERELVAAINWRTGNTYYADSVKGRFTISRDNAKNTVYLQMNSLKAEDTAVYYCNARYRSDYWGIQYDYWGQGTQVTVSS | high polyreactivity |
| QVHLVESGGPLVQAGGSLRLSCAASGRIFQINAMVWYRQAPGKERELVAGITGSGGSTDYADSVKGRFTISRDKSKNTVYLQMNSLKPEDTAVYYCAADTYTDGYDYWGQGTQVTVSS | low polyreactivity |

| Sequence | polyreactivity (PSR sort gate) |
| --- | --- |
| QVHLVESGGVLVQAGGSLRLSCAAYGSTFSWNAMGWYRQSPWKESELVAPITTRGGSTYYADSVKGRFTISRDNAQNTVYLEMNSLKPEDTAVYDCAASYGYRGGWGPGVDYWGQCTQVTVSS | low polyreactivity |
| QVHLVESGRGLFQAGGSLRLSCAASGRIFPGYAMGWSRQAPGKESELVAGITWRTARTYYAYSVKGRFTISRDIAKNTVYLQMNSLKPEDTAVYYCAAKYARYGRDVIFDYWGQGTEVTVSS | high polyreactivity |
| QVHLVESGRGLLQAGGSLRLSCAPSGRTFGVYSMGWYSQAPGKERELVAAISWSGDRTYYADSVKGRFTISRDYAKNTVYLQMNSLKPEDPALDYAEYHGAKYDYWGQGTQVTVSS | high polyreactivity |
| QVHLVESRGGLIQAGGSLRLSCAASGSLYVYNALGWYRQAPGKERELVAGITFIGGSTYYADSVKGRFTISRDNAKNTVYLQMNSLKPEDTAVCYSNADVAPGIFYGYDSWGQGTQVTVSS | low polyreactivity |
| QVHLVESRGGLVQAGGSLRLSCAASGRPFNPYAMGWYRQAPGKEREFVYADSVKGRFTISRDNAKNTVYLQMNSLKPEDTAVYYCAADVYPDTLHPYNYDYWGQGTQVTVSS | low polyreactivity |
| QVHLVESVGGLVQAGGSLRLSCAASGIIFNDYAMGWYRQAPGKERELVATISWSGGSTYADSVKGRFTISRDNAKNTVYLQMNSLNPEDTAVYYCNADLGSSYDWGQGTQGTVSS | low polyreactivity |
| QVHLVESVGGLVQAGGSLSLSCAASGLIFDGYAMGWYRQAPGKERDLVAAITWRGGRTYADSVKGRFTISRDNAKNTVYLQMNSLQPEVTAVYYCAVRRWGTSFVEDDYWGQGTQVTVSS | low polyreactivity |
| QVHLVESWAGLVQAGGSLRLSGAASGTNVMGWYRQAPGKERELDAAISGSGGSTYYADSVKGRFTISRDNAKNTVYLQMNSLKPEDTAVYYCAADSIQYTARPYDYWGQGTQVTVSS | low polyreactivity |
| QVHLVETGGGLVQAGGSLRLSCAASGSIFVSNAKGWYRQAPGKERELVAAISQSGGSTYYADSVKGRFTISRDYAKNTVYLQMNSLKPEDTAVYYCATPIRSGFRIYDYWGQGTQVTVSS | low polyreactivity |
| QVHLVETGGGLVQEGGSLRLSCAASGSIFYYNAMGWYRQATGKETELVAAITSSGGSTYADSVKGRFTISRDNAKNTVYLQMNSLKPEDTAVYYCATVAHGLWSGSGYIYAYDYWGQGTQVTVSS | low polyreactivity |
| QVHLVQSGGGLVQAGGSLRLSCAASGSIYVAYEMGWYRQAPGKERELVAAINFDGTSTYYADSVKGRFTISRDNAKNTVYLQMNSLKPEDTAVYYCNKRVSPTYKGQYDYWGQGTQVTVSS | low polyreactivity |
| QVHLVVSGGGLVQEGGSLSLRWAASGSTFEYYGMGWYTQAPGKERELVAAITVSGGSTYYADSVKGRFTISRDNEKNTVYLQIHSLKPEDSAVCYCAARPILYWYFRFDYWGQGTQVTVSS | low polyreactivity |
| QVHRVESGGGLVQAGGSLRLSCAASGIIFARYAMGWYRPAPGKERELVAAITRRAVSTYYADSVKGRFTITRDNAKNSVYLQLISLKPEDTAVYYCAADRASYFTYAYGYWGQGTQVTVSS | high polyreactivity |
| QVHVVESGGGLVQAGGSLRLSCAASGFTFGNNAIGWYRQAPGKERELVAGISRTGGRTYYADSVKGRFTISRDNAMNTVFLPMNSLKPEDTAVFYCAKAFRGHYWGQGTQVNVSS | high polyreactivity |
| QVHVVESGGGLVQAGGSLRLSCAASGSSFYHYAMGWYRQAPGKERELVAAISGSGGSTYYADSVKGRFTISRDNAKNTVYLQMNSLKPEDTAVYYCAADTSRYHYTRYFFDSDYWGQGTQVTVSS | low polyreactivity |
| QVKHVESGGGLVQAGGSLRLTCAASGRTFDRYARGWCRQAPGKDRQLVASISWTGGSPYYADSVKGRFTISRDNAKNTVYLQMNSLKPEVTAVYYCAVRFDYWGQGTQVTVSS | low polyreactivity |
| QVKLEESGGGLVQAGGSLRLTCAASGSTFTYYAMGWYRQAPGKERELVAAITFRGDSTYYADSVKGRFTFSRDNAKNTVYLQMNSLKPEDTAVYYWGQGTQVTVSS | low polyreactivity |
| QVKLHESGGGLVQAGDSQRLSCAASGNIFRFTDMGWSRQAPRKERELVAAINAGSTTYYADSVKGRFTISRDNAKNTVYLQKNSLKPEDTAVYYWAVYYLGSGTFGYWGQGAQVTVSS | high polyreactivity |
| QVKLLESGGGLVQAGGSLRLTCAASGSTFPPYAMGWYRQAPGTESELVAAISYRDTGTYYADSVKGRFTISRDNAKYTVYLQMNSLKPEDTAVYYCATLGYFSASRTDYDYWGQGTQVTVSS | low polyreactivity |
| QVKLQESGGGLVQAGGSLRLSCAASGNISVTGFMGWYRQAPGKERELVASIGIGGTTYYADSVKGRFSISRDNANNTLYLQMNSLKPEDTAVYYCAARYLYYAYSYWGQGTQVTVSS | low polyreactivity |
